Values belong to the sequence of their own block, whether it stands above or below them.
What was measured:
[1] = target: Grb2 SH2 (UniProt P62993); assay: SH2 binding enrichment of the phosphorylated peptide, bacterial display (enrichment ratio); higher = better substrate or ligand; peptides without Tyr show the background
[2] = target: SHP2-C SH2; assay: as above
[3] = target: c-Src SH2; assay: as above
[4] = system: c-Src; assay: phosphorylation enrichment, bacterial display (enrichment ratio); higher = better substrate or ligand; peptides without Tyr show the background
[5] = target: Fes (UniProt P07332); assay: as above
[6] = system: c-Abl (mouse); assay: as above
[7] = system: Fer (mouse); assay: as above
[8] = target: FGFR1 (UniProt P11362); assay: as above
Sequence of FGFR1 (P11362 whole entry, looked up): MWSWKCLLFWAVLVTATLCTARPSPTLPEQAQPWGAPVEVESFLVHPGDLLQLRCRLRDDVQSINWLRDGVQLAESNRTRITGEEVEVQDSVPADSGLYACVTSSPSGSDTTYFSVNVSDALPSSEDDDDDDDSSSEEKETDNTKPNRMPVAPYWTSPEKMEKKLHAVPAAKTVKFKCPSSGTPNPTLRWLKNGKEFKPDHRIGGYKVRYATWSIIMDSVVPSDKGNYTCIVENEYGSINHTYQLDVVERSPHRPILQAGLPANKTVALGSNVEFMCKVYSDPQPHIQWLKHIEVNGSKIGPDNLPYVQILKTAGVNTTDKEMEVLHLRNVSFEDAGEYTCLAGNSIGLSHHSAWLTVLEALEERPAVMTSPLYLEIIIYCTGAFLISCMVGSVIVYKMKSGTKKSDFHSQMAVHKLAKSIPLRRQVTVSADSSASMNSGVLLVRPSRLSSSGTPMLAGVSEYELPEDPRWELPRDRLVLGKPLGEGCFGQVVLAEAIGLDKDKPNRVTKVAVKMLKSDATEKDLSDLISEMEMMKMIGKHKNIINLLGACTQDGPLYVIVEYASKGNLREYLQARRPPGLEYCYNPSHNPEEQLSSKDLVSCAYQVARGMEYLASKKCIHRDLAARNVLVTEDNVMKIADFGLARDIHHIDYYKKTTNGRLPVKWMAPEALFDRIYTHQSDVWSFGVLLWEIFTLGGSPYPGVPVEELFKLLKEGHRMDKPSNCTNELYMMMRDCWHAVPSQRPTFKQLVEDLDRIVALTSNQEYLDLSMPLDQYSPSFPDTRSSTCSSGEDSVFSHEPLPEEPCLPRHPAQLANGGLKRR

[9] = target: Fyn (UniProt P06241); assay: as above
Sequence of Fyn (P06241 whole entry, looked up): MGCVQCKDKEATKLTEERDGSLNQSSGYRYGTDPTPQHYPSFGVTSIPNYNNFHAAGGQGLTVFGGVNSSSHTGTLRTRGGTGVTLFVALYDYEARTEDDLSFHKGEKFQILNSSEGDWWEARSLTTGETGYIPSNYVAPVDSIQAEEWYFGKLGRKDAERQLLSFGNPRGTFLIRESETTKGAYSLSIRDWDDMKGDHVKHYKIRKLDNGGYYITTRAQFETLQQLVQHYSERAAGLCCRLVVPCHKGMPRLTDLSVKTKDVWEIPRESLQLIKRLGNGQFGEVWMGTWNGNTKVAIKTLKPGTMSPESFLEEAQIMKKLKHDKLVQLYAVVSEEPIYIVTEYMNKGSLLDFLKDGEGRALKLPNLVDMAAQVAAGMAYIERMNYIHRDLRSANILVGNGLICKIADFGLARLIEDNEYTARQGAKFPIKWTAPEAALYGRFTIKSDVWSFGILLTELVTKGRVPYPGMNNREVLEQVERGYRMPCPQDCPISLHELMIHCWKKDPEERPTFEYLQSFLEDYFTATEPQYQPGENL

[10] = target: EPHB2 (UniProt P29323); assay: as above
Sequence of EPHB2 (P29323 whole entry, looked up): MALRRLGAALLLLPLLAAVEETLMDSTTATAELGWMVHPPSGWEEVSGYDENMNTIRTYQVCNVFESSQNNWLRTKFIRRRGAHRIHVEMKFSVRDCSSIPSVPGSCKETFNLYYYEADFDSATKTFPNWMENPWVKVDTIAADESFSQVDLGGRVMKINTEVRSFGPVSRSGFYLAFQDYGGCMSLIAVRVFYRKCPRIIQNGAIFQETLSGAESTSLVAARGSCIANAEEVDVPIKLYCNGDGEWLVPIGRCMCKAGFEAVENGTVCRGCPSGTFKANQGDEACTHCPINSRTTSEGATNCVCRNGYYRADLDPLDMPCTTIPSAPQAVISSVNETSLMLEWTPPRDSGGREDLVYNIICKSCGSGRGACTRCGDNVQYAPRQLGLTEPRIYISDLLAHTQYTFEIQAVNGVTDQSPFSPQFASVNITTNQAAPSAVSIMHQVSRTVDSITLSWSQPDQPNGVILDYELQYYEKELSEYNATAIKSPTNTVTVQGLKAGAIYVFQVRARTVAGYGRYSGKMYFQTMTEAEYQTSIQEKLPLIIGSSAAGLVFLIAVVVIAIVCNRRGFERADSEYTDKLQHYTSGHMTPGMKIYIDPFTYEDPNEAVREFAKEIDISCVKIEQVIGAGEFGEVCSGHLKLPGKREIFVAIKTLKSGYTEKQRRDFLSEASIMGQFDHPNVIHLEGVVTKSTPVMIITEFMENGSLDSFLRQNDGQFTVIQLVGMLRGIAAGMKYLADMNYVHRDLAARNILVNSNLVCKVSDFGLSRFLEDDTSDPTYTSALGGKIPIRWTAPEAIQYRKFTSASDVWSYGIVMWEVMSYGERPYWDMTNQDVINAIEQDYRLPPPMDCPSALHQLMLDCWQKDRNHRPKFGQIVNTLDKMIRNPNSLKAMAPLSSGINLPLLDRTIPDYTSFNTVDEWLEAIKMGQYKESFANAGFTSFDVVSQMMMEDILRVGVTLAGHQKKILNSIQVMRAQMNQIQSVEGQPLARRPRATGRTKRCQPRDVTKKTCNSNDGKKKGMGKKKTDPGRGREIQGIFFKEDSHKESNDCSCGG

[11] = target: Hck (UniProt P08631); assay: as above
Sequence of Hck (P08631 whole entry, looked up): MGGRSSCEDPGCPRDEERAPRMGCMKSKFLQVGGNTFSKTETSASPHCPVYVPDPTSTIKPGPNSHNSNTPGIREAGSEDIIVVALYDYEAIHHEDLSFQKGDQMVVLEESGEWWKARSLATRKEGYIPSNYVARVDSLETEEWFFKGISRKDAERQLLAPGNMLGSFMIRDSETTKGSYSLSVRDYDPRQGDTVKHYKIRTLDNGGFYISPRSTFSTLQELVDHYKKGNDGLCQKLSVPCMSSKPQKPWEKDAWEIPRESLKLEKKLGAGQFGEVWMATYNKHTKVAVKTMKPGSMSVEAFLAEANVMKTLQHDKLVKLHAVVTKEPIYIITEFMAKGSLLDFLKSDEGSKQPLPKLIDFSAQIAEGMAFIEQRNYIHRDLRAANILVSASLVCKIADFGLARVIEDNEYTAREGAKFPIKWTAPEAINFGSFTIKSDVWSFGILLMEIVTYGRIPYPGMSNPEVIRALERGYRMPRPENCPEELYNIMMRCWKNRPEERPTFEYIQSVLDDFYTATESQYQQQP

[12] = target: Jak2 (UniProt O60674); assay: as above
Sequence of Jak2 (O60674 whole entry, looked up): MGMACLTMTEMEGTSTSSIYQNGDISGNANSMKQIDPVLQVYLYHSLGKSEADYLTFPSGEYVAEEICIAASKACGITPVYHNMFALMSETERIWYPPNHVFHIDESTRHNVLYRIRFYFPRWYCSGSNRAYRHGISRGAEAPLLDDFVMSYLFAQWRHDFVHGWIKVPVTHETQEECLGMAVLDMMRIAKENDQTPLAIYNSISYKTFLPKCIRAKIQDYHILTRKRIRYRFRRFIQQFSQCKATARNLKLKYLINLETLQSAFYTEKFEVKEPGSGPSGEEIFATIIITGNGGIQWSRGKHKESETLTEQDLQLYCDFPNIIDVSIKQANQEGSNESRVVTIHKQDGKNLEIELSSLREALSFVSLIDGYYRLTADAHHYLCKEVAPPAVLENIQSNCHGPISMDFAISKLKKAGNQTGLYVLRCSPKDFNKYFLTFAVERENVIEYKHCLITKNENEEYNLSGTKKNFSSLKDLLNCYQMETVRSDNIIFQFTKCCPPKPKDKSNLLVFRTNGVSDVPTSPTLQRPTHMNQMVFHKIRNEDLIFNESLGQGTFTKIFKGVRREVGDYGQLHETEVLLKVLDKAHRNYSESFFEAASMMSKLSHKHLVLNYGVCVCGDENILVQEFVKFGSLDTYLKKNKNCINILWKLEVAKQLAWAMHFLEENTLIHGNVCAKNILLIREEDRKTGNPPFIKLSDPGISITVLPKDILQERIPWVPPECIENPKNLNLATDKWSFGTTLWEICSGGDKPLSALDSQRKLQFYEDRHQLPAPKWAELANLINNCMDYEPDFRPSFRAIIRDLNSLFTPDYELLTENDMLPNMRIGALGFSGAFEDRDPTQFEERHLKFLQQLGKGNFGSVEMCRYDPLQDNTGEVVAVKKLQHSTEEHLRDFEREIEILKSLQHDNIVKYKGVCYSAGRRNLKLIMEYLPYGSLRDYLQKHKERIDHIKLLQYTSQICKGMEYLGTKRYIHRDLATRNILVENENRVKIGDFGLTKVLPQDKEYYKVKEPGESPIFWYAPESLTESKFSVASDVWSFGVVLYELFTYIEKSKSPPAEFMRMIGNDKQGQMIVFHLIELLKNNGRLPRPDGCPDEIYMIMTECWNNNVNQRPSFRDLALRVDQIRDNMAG

[13] = target: MERTK (UniProt Q12866); assay: as above
Sequence of MERTK (Q12866 whole entry, looked up): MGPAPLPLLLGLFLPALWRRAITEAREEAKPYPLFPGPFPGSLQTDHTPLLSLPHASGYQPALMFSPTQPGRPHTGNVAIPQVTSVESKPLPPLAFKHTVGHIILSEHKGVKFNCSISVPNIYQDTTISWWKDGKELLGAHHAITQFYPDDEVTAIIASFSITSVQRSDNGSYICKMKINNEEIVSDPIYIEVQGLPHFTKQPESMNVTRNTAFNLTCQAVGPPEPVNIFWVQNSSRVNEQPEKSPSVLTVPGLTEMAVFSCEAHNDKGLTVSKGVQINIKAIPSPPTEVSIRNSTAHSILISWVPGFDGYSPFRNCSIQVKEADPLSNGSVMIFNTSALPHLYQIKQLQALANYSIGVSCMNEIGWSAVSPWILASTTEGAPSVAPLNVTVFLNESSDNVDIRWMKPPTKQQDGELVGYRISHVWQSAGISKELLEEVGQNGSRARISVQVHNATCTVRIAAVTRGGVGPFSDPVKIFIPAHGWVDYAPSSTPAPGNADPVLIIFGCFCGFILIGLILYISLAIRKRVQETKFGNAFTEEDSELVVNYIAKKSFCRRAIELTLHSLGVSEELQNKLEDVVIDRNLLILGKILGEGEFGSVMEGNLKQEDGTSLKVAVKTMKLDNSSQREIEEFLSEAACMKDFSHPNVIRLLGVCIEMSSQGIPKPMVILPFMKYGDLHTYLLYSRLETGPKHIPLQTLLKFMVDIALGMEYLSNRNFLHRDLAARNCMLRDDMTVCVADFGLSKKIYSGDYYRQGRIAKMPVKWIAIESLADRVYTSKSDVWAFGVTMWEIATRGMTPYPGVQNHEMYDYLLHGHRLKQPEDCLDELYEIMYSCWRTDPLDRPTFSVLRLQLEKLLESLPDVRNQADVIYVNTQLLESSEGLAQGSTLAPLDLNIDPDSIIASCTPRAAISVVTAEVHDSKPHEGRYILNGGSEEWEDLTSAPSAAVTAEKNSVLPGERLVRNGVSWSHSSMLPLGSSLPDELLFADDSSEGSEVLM

[14] = target: EPHB1 (UniProt P54762); assay: as above
[15] = system: AncSZ; assay: as above
[16] = target: FGFR3 (UniProt P22607); assay: as above
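For SH2 binding enrichment of the phosphorylated peptide, bacterial display in this document: peptide library displayed on the E. coli surface as eCPX fusions, selected cells deep-sequenced, score is each peptide's frequency after selection divided by its frequency in the input.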
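For phosphorylation enrichment, bacterial display in this document: 11-residue human phosphosite peptides and single-mutation variants displayed on the E. coli surface, counted by deep sequencing, each peptide's frequency after selection divided by its frequency in the unselected input library; frequency after pTyr selection over input frequency; kinase dosed for 20-30% of maximal phosphorylation in three min.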

Sequence: PARLEYYENEK [IRS1_Y46]
SH2 binding enrichment [1]: 3.84 | SH2 binding enrichment [2]: 1.35 | SH2 binding enrichment [3]: 18.6 | phosphorylation enrichment [4]: 0.711 | phosphorylation enrichment [5]: 1.26 | phosphorylation enrichment [6]: 0.725 | phosphorylation enrichment [7]: 0.25 | phosphorylation enrichment [8]: 0.533 | phosphorylation enrichment [9]: 0.732 | phosphorylation enrichment [10]: 0.723 | phosphorylation enrichment [11]: 0.48 | phosphorylation enrichment [12]: 1.17 | phosphorylation enrichment [13]: 0.547 | phosphorylation enrichment [14]: 0.613 | phosphorylation enrichment [15]: 1.26 | phosphorylation enrichment [16]: 0.882

Sequence: PEADKYRLPFA [FGG_Y300_T303P_YF]
SH2 binding enrichment [1]: 0.821 | SH2 binding enrichment [2]: 0.517 | SH2 binding enrichment [3]: 0.423 | phosphorylation enrichment [4]: 0.614 | phosphorylation enrichment [5]: 0.717 | phosphorylation enrichment [6]: 0.634 | phosphorylation enrichment [7]: 0.512 | phosphorylation enrichment [8]: 0.544 | phosphorylation enrichment [9]: 0.614 | phosphorylation enrichment [10]: 0.645 | phosphorylation enrichment [11]: 0.648 | phosphorylation enrichment [12]: 0.731 | phosphorylation enrichment [13]: 0.442 | phosphorylation enrichment [14]: 0.61 | phosphorylation enrichment [15]: 0.988 | phosphorylation enrichment [16]: 0.657

Sequence: PELINYHQHNF [BTK_Y361_S366F]
SH2 binding enrichment [1]: 1.03 | SH2 binding enrichment [2]: 0.716 | SH2 binding enrichment [3]: 0.434 | phosphorylation enrichment [4]: 0.942 | phosphorylation enrichment [5]: 1.25 | phosphorylation enrichment [6]: 0.919 | phosphorylation enrichment [7]: 0.736 | phosphorylation enrichment [8]: 0.851 | phosphorylation enrichment [9]: 0.789 | phosphorylation enrichment [10]: 0.826 | phosphorylation enrichment [11]: 0.836 | phosphorylation enrichment [12]: 1.02 | phosphorylation enrichment [13]: 0.696 | phosphorylation enrichment [14]: 0.631 | phosphorylation enrichment [15]: 1.04 | phosphorylation enrichment [16]: 0.598

Sequence: PELINYQQHNS [BTK_Y361_H362Q]
SH2 binding enrichment [1]: 0.753 | SH2 binding enrichment [2]: 0.732 | SH2 binding enrichment [3]: 0.491 | phosphorylation enrichment [4]: 0.969 | phosphorylation enrichment [5]: 1.38 | phosphorylation enrichment [6]: 1.22 | phosphorylation enrichment [7]: 0.742 | phosphorylation enrichment [8]: 0.763 | phosphorylation enrichment [9]: 0.829 | phosphorylation enrichment [10]: 0.821 | phosphorylation enrichment [11]: 1.25 | phosphorylation enrichment [12]: 1.52 | phosphorylation enrichment [13]: 0.988 | phosphorylation enrichment [14]: 0.79 | phosphorylation enrichment [15]: 1.1 | phosphorylation enrichment [16]: 0.79

Sequence: PESIMYRKFTT [NTRK3_Y744]
SH2 binding enrichment [1]: 1.05 | SH2 binding enrichment [2]: 0.494 | SH2 binding enrichment [3]: 0.6 | phosphorylation enrichment [4]: 0.488 | phosphorylation enrichment [5]: 0.789 | phosphorylation enrichment [6]: 0.777 | phosphorylation enrichment [7]: 0.485 | phosphorylation enrichment [8]: 0.384 | phosphorylation enrichment [9]: 0.67 | phosphorylation enrichment [10]: 0.552 | phosphorylation enrichment [11]: 0.517 | phosphorylation enrichment [12]: 0.666 | phosphorylation enrichment [13]: 0.616 | phosphorylation enrichment [14]: 0.534 | phosphorylation enrichment [15]: 3.03 | phosphorylation enrichment [16]: 0.667

Sequence: PFTRNYYVQAV [CYBA_Y87_R90Q]
SH2 binding enrichment [1]: 0.981 | SH2 binding enrichment [2]: 3.28 | SH2 binding enrichment [3]: 1.19 | phosphorylation enrichment [4]: 0.615 | phosphorylation enrichment [5]: 1.1 | phosphorylation enrichment [6]: 1.12 | phosphorylation enrichment [7]: 0.555 | phosphorylation enrichment [8]: 1.99 | phosphorylation enrichment [9]: 0.46 | phosphorylation enrichment [10]: 0.706 | phosphorylation enrichment [11]: 0.446 | phosphorylation enrichment [12]: 1.17 | phosphorylation enrichment [13]: 1.25 | phosphorylation enrichment [14]: 0.787 | phosphorylation enrichment [15]: 1.03 | phosphorylation enrichment [16]: 1.9

Sequence: PGRRFYVVACD [RNASE3_Y134]
SH2 binding enrichment [1]: 1.05 | SH2 binding enrichment [2]: 0.569 | SH2 binding enrichment [3]: 0.849 | phosphorylation enrichment [4]: 2.16 | phosphorylation enrichment [5]: 1.65 | phosphorylation enrichment [6]: 1.24 | phosphorylation enrichment [7]: 0.52 | phosphorylation enrichment [8]: 0.654 | phosphorylation enrichment [9]: 0.389 | phosphorylation enrichment [10]: 1.19 | phosphorylation enrichment [11]: 0.733 | phosphorylation enrichment [12]: 2.05 | phosphorylation enrichment [13]: 1.22 | phosphorylation enrichment [14]: 0.536 | phosphorylation enrichment [15]: 1.43 | phosphorylation enrichment [16]: 0.916

Sequence: PIDLFYLMDLS [ITGB2_Y131_YF]
SH2 binding enrichment [1]: 0.957 | SH2 binding enrichment [2]: 0.88 | SH2 binding enrichment [3]: 0.524 | phosphorylation enrichment [4]: 1.52 | phosphorylation enrichment [5]: 1.99 | phosphorylation enrichment [6]: 0.98 | phosphorylation enrichment [7]: 0.426 | phosphorylation enrichment [8]: 0.633 | phosphorylation enrichment [9]: 0.599 | phosphorylation enrichment [10]: 0.559 | phosphorylation enrichment [11]: 0.771 | phosphorylation enrichment [12]: 1.22 | phosphorylation enrichment [13]: 0.728 | phosphorylation enrichment [14]: 0.737 | phosphorylation enrichment [15]: 1.61 | phosphorylation enrichment [16]: 1.13

Sequence: PIFLFYLMDLS [ITGB2_Y131_D128Y_YF]
SH2 binding enrichment [1]: 0.61 | SH2 binding enrichment [2]: 0.874 | SH2 binding enrichment [3]: 0.567 | phosphorylation enrichment [4]: 1.12 | phosphorylation enrichment [5]: 3.28 | phosphorylation enrichment [6]: 1.91 | phosphorylation enrichment [7]: 1.24 | phosphorylation enrichment [8]: 0.702 | phosphorylation enrichment [9]: 0.613 | phosphorylation enrichment [10]: 1.01 | phosphorylation enrichment [11]: 0.95 | phosphorylation enrichment [12]: 3.98 | phosphorylation enrichment [13]: 0.914 | phosphorylation enrichment [14]: 2.51 | phosphorylation enrichment [15]: 2.78 | phosphorylation enrichment [16]: 1.31

Sequence: PIPIKYKAMKK [MYD88_Y257_L252P]
SH2 binding enrichment [1]: 1.32 | SH2 binding enrichment [2]: 1.1 | SH2 binding enrichment [3]: 0.822 | phosphorylation enrichment [4]: 0.534 | phosphorylation enrichment [5]: 0.72 | phosphorylation enrichment [6]: 0.642 | phosphorylation enrichment [7]: 0.336 | phosphorylation enrichment [8]: 0.383 | phosphorylation enrichment [9]: 0.5 | phosphorylation enrichment [10]: 0.495 | phosphorylation enrichment [11]: 0.582 | phosphorylation enrichment [12]: 0.665 | phosphorylation enrichment [13]: 0.382 | phosphorylation enrichment [14]: 0.407 | phosphorylation enrichment [15]: 0.677 | phosphorylation enrichment [16]: 0.858

The next lines start with results.

SH2 binding enrichment [1]: 0.834 | SH2 binding enrichment [2]: 0.391 | SH2 binding enrichment [3]: 0.663
Sequence: PEVRRHVLPLN [RPE65_Y368_Y368H]
phosphorylation enrichment [4]: 0.661 | phosphorylation enrichment [5]: 1.61 | phosphorylation enrichment [6]: 1.73 | phosphorylation enrichment [7]: 0.843 | phosphorylation enrichment [8]: 0.707 | phosphorylation enrichment [9]: 0.587 | phosphorylation enrichment [10]: 0.886 | phosphorylation enrichment [11]: 0.894 | phosphorylation enrichment [12]: 1.57 | phosphorylation enrichment [13]: 0.669 | phosphorylation enrichment [14]: 0.849 | phosphorylation enrichment [15]: 1.35 | phosphorylation enrichment [16]: 1.03

SH2 binding enrichment [1]: 0.879 | SH2 binding enrichment [2]: 0.586 | SH2 binding enrichment [3]: 0.665
Sequence: PGQRVYVVAER [SHH_Y316]
phosphorylation enrichment [4]: 0.464 | phosphorylation enrichment [5]: 0.91 | phosphorylation enrichment [6]: 0.503 | phosphorylation enrichment [7]: 0.494 | phosphorylation enrichment [8]: 0.522 | phosphorylation enrichment [9]: 0.395 | phosphorylation enrichment [10]: 0.537 | phosphorylation enrichment [11]: 0.57 | phosphorylation enrichment [12]: 0.556 | phosphorylation enrichment [13]: 0.447 | phosphorylation enrichment [14]: 0.63 | phosphorylation enrichment [15]: 0.883 | phosphorylation enrichment [16]: 0.524

SH2 binding enrichment [1]: 0.663 | SH2 binding enrichment [2]: 0.706 | SH2 binding enrichment [3]: 0.422
Sequence: PLDGESFTLQI [TP53_Y327_Y327S]
phosphorylation enrichment [4]: 0.616 | phosphorylation enrichment [5]: 1.67 | phosphorylation enrichment [6]: 1.23 | phosphorylation enrichment [7]: 0.552 | phosphorylation enrichment [8]: 0.634 | phosphorylation enrichment [9]: 0.569 | phosphorylation enrichment [10]: 0.93 | phosphorylation enrichment [11]: 0.619 | phosphorylation enrichment [12]: 1.26 | phosphorylation enrichment [13]: 0.549 | phosphorylation enrichment [14]: 0.731 | phosphorylation enrichment [15]: 1.64 | phosphorylation enrichment [16]: 1.05

SH2 binding enrichment [1]: 1.12 | SH2 binding enrichment [2]: 0.717 | SH2 binding enrichment [3]: 0.429
Sequence: PLDGEYFTHQI [TP53_Y327_L330H]
phosphorylation enrichment [4]: 1.61 | phosphorylation enrichment [5]: 1.43 | phosphorylation enrichment [6]: 1.5 | phosphorylation enrichment [7]: 1.08 | phosphorylation enrichment [8]: 2.17 | phosphorylation enrichment [9]: 1.99 | phosphorylation enrichment [10]: 1.15 | phosphorylation enrichment [11]: 1.65 | phosphorylation enrichment [12]: 0.99 | phosphorylation enrichment [13]: 0.656 | phosphorylation enrichment [14]: 0.932 | phosphorylation enrichment [15]: 4.62 | phosphorylation enrichment [16]: 1.55

SH2 binding enrichment [1]: 0.713 | SH2 binding enrichment [2]: 2.38 | SH2 binding enrichment [3]: 0.717
Sequence: PLQKTYNFNML [SLC4A1_Y553_V557M_YF]
phosphorylation enrichment [4]: 0.784 | phosphorylation enrichment [5]: 1.17 | phosphorylation enrichment [6]: 0.63 | phosphorylation enrichment [7]: 0.665 | phosphorylation enrichment [8]: 0.318 | phosphorylation enrichment [9]: 0.493 | phosphorylation enrichment [10]: 0.587 | phosphorylation enrichment [11]: 0.594 | phosphorylation enrichment [12]: 0.861 | phosphorylation enrichment [13]: 0.582 | phosphorylation enrichment [14]: 0.476 | phosphorylation enrichment [15]: 0.801 | phosphorylation enrichment [16]: 0.809

SH2 binding enrichment [1]: 0.85 | SH2 binding enrichment [2]: 1.1 | SH2 binding enrichment [3]: 0.624
Sequence: PLQNTYNFNVL [SLC4A1_Y553_K551N_YF]
phosphorylation enrichment [4]: 2.52 | phosphorylation enrichment [5]: 1.43 | phosphorylation enrichment [6]: 0.893 | phosphorylation enrichment [7]: 0.812 | phosphorylation enrichment [8]: 0.803 | phosphorylation enrichment [9]: 1.67 | phosphorylation enrichment [10]: 0.756 | phosphorylation enrichment [11]: 0.57 | phosphorylation enrichment [12]: 0.959 | phosphorylation enrichment [13]: 0.634 | phosphorylation enrichment [14]: 0.798 | phosphorylation enrichment [15]: 0.891 | phosphorylation enrichment [16]: 0.616

Source: the supplement of paper PMC10065799, “High-throughput profiling of sequence recognition by tyrosine kinases and SH2 domains using bacterial peptide display” (eLife, 2023)
